{
  "source": "paper PMC11889601",
  "about": "“The structural integrity of human TFF1 under reducing conditions” (Redox Biology, 2025)",
  "molecules": {"B1": {"name": "TFF2: trefoil factor family secretory peptide 2 (protein, UniProt Q03403 24-129, looked up)", "Trefoil factor 2": "EKPSPCQCSRLSPHNRTNCGFPGITSDQCFDNGCCFDSSVTGVPWCFHPLPKQESDQCVMEVSDRRNCGYPGISPEECASRKCCFSNFIFEVPWCFFPKSVEDCHY"}},
  "key": {"[1]": {"details": "monomer and homodimer TFF3 domains; reduced glutathione 10 equivalents, 100 μM, pH 7; ref [22]; cited from earlier work", "excerpt": "(§1) Many secretory proteins contain disulfide bonds, with most formed during folding in the endoplasmic reticulum. The trefoil factor family (TFF) is a highly relevant example of such secretory peptides in humans, with three characteristic peptides (TFF1, TFF2, TFF3) produced by mucous epithelia. They are most abundantly secreted throughout different compartments of the gastrointestinal tract, where they have important functions in protecting the epithelium barrier and maintaining mucosal epithelial homeostasis. Each member of the family has at least one highly conserved TF ..."}, "[2]": {"tested_on": "gastrointestinal proteases", "details": "ref [17]-[21]; cited from earlier work", "excerpt": "as §1"}, "[3]": {"assay": "Reductive stability of disulfide bonds: TCEP reduction, IAM alkylation, LC-MS", "assay_type": "physicochemical", "details": "chemical stability to reduction, 30 min, room temperature (25 °C), then IAM 100 eq/Cys 5 min, TFA quench; for Reduction and alkylation of disulfide bonds with 5 equivalents of TCEP: peptide 150 μM in 100 mM tris.HCl pH 7.4, 5 molar equivalents TCEP per peptide; for Reduction and alkylation of disulfide bonds with 15 equivalents of TCEP: peptide 150 μM in 100 mM tris.HCl pH 7.4, 15 molar equivalents TCEP per peptide; for Reduction and alkylation of disulfide bonds with 150 equivalents of TCEP: peptide 150 μM in 100 mM tris.HCl pH 7.4, 150 molar equivalents TCEP per peptide", "experimental": "Peptides were purified by preparative RP-HPLC using a C5 column (Phenomenex Luna; 10 μm, 21.2 mm ID × 250 mm; flow rate 20 mL/min) on a Shimadzu LC-20A system running a linear gradient of solvents A (0.1 % TFA (aq) and B (90 % acetonitrile (aq)/0.1 % TFA). Fractions were analyzed by liquid chromatography-mass spectrometry (LC-MS), and those containing the desired peptide and >95 % purity were pooled and lyophilized. LC-MS analyses were performed on a C18 column (Agilent Eclipse Plus; […], 2.1 mm ID x 50 mm; flow rate 0.25 mL/min), using a QSTAR Elite electrospray ionization quadrupole time-of-flight (ESI QqTOF) mass spectrometer (SCIEX) linked to an upstream Shimadzu LC-20A HPLC system. HPLC solvents were the same as described previously, substituting formic acid for TFA. Peptides were separated on a gradient of 2–60 % B over 10 min and analyzed over a mass range of 200–2000 amu.\nPeptides (TFF1, linaclotide, or BPTI) were dissolved to a concentration of 150 μM in 100 mM tris.HCl, pH 7.4. TCEP and IAM were prepared as separate 0.5 M solutions in 100 mM tris.HCl and the pH of all solutions were adjusted with concentrated KOH to pH 7.4. 25 μL of peptide (3.75 nmol) were treated with 0.5 M TCEP (0–150 molar equivalents per peptide). The samples were incubated at room temperature (25 °C) for 30 min, whereby they were treated with 5 μL (2.5 μmol; 100 eq/Cys) IAM for 5 min, followed by quenching with 5 μL TFA to reduce the pH to 2–3. Samples were then analyzed by LC-MS."}},
  "note": "Ends that are not written are not given here.",
  "data": [
    {"molecule": "TFF3: trefoil factor family secretory peptide 3, with TFF domain (EEYVGLSANQCAVPAKDRVDCGYPHVTPKECNNRGCCFDSRIPGVPWCFKPLQEAECTF; ends and bridges not checked; also: three intramolecular disulfides in TFF domain, pairing not given here; UniProt Q07654 22-80, looked up)", "values": [
      {"measurement": "Persistence of disulfide bonds in the presence of reduced glutathione", "setting": "[1]", "result": "no disulfide bond reduction or scrambling detected"},
      {"measurement": "Resistance of the TFF domain to gastrointestinal proteases", "setting": "[2]", "result": "resistance"}
    ]},
    {"molecule": "bovine pancreatic trypsin inhibitor [BPTI]", "values": [
      {"measurement": "Reduction and alkylation of disulfide bonds with 5 equivalents of TCEP", "setting": "[3]", "result": "complete reduction and alkylation of a single disulfide bond"},
      {"measurement": "Reduction and alkylation of disulfide bonds with 15 equivalents of TCEP", "setting": "[3]", "result": "no further reduction"},
      {"measurement": "Reduction and alkylation of disulfide bonds with 150 equivalents of TCEP", "setting": "[3]", "result": "No further reduction"}
    ]},
    {"molecule": "linaclotide", "values": [
      {"measurement": "Reduction and alkylation of disulfide bonds with 5 equivalents of TCEP", "setting": "[3]", "result": "partial reduction and alkylation of a single disulfide bond"},
      {"measurement": "Reduction and alkylation of disulfide bonds with 15 equivalents of TCEP", "setting": "[3]", "result": "fully reduced and alkylated"},
      {"measurement": "Reduction and alkylation of disulfide bonds with 150 equivalents of TCEP", "setting": "[3]", "result": "fully reduced and alkylated"}
    ]},
    {"molecule": "B1", "values": [
      {"measurement": "Resistance of the TFF domain to gastrointestinal proteases", "setting": "[2]", "result": "resistance"}
    ]}
  ]
}
